From patent US20240209106A1 (BEIGENE SWITZERLAND, published 2024)

What follows are binders tested against human CD137 ECD-mIgG2a (human) (assay: SPR, multispecific antibody captured on anti-human IgG Fc chip, human CD137 ECD-mIgG2a flowed over).
human CD137 ECD-mIgG2a (human), sequence (chain, as listed by the source limits assumed): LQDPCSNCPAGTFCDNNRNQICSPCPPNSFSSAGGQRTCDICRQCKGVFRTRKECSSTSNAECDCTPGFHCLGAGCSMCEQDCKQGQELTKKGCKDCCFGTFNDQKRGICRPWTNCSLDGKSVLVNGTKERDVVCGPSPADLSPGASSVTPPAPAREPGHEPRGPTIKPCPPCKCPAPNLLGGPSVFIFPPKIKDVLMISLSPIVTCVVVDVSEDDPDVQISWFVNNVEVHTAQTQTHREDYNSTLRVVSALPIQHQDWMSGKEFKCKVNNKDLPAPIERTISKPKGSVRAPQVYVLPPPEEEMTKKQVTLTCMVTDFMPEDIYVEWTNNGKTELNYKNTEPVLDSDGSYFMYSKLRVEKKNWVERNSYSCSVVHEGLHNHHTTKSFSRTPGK
Experimental: Briefly, anti-human IgG (Fc) antibody was immobilized on an activated CM5 biosensor chip (Cat.: BR100839, GE Life Sciences). Anti-huCD137 monoclonal antibodies or multispecific antibodies were flown through the chip surface and captured by anti-human IgG (Fc) antibody. […] The equilibrium dissociation constant (KD)) was calculated as the ratio koff/kₒₙ.

| Kd | Binder |
| --- | --- |
| 798 nM | Format A - BGA-3285 (bispecific antibody, human IgG1, kappa, Light chain by the description of Format A) heavy: QVQLVQSGAEVKKPGASVKVSCKASGYIFTSYYLHWVRQAPGQGLEWIGYINPQTGKTSYAQKFQGRVTMTRDTSTSTVYMELSSLRSEDTAVYYCAREYGNYNYPLDYWGQGTLVTVSSASTKGPSVFPLAPSSKSTSGGTAALGCLVKDYFPEPVTVSWNSGALTSGVHTFPAVLQSSGLYSLSSVVTVPSSSLGTQTYICNVNHKPSNTKVDKKVEPKSCDKTHTCPPCPAPPAAGPSVFLFPPKPKDTLMISRTPEVTCVVVDVSHEDPEVKFNWYVDGVEVHNAKTKPREEQYNSTYRVVSVLTVLHQDWLNGKEYKCKVSNKALAAPIEKTISKAKGQPREPQVYTLPPSREEMTKNQVSLTCLVKGFYPSDIAVEWESNGQPENNYKTTPPVLDSDGSFFLYSKLTVDKSRWQQGNVFSCSVMHEALHNHYTQKSLSLSPGKGGGGSEVQLLESGGGLVQPGGSLRLSCAASGFTISAEDVGWVRQAPGKGLEWVSAILDFGGSTYYAESVKGRFTISRDNAKNTLYLQMSSLRAEDTAVYYCARVVYHAGGGVTFDTRGQGTQVTVSS light: DIQMTQSPSSLSASVGDRVTITCRASENQYGYLAWYQQKPGKVPKLLIYNYKNLVEGVPSRFSGSGSGTDFTLTISSLQPEDVATYYCQHHLGTPYTFGQGTKVEIKRTVAAPSVFIFPPSDEQLKSGTASVVCLLNNFYPREAKVQWKVDNALQSGNSQESVTEQDSKDSTYSLSSTLTLSKADYEKHKVYACEVTHQGLSSPVTKSFNRGEC |
| 115 nM | Format A - BGA-3953 (bispecific antibody, human IgG1, kappa, Light chain by the description of Format A) heavy: QVQLVQSGAEVKKPGASVKVSCKASGYIFTSYYLHWVRQAPGQGLEWIGYINPQTGKTSYAQKFQGRVTMTRDTSTSTVYMELSSLRSEDTAVYYCAREYGNYNYPLDYWGQGTLVTVSSASTKGPSVFPLAPSSKSTSGGTAALGCLVKDYFPEPVTVSWNSGALTSGVHTFPAVLQSSGLYSLSSVVTVPSSSLGTQTYICNVNHKPSNTKVDKKVEPKSCDKTHTCPPCPAPPAAGPSVFLFPPKPKDTLMISRTPEVTCVVVDVSHEDPEVKFNWYVDGVEVHNAKTKPREEQYNSTYRVVSVLTVLHQDWLNGKEYKCKVSNKALAAPIEKTISKAKGQPREPQVYTLPPSREEMTKNQVSLTCLVKGFYPSDIAVEWESNGQPENNYKTTPPVLDSDGSFFLYSKLTVDKSRWQQGNVFSCSVMHEALHNHYTQKSLSLSPGKGGGGSEVQLLESGGGLVQPGGSLRLSCAASGFTVSAEDVGWVRQAPGKGLEWVSAILDSGGSTYYAESVKGRFTISRDNAKNTLYLQMSSLRAEDTAVYYCARIVYHAGGGVTFDTRGQGTQVTVSS light: DIQMTQSPSSLSASVGDRVTITCRASENQYGYLAWYQQKPGKVPKLLIYNYKNLVEGVPSRFSGSGSGTDFTLTISSLQPEDVATYYCQHHLGTPYTFGQGTKVEIKRTVAAPSVFIFPPSDEQLKSGTASVVCLLNNFYPREAKVQWKVDNALQSGNSQESVTEQDSKDSTYSLSSTLTLSKADYEKHKVYACEVTHQGLSSPVTKSFNRGEC |
| 245 nM | Format A - BGA-7746 (bispecific antibody, human IgG1, kappa, Light chain by the description of Format A) heavy: QVQLVQSGAEVKKPGASVKVSCKASGYIFTSYYLHWVRQAPGQGLEWIGYINPQTGKTSYAQKFQGRVTMTRDTSTSTVYMELSSLRSEDTAVYYCAREYGNYNYPLDYWGQGTLVTVSSASTKGPSVFPLAPSSKSTSGGTAALGCLVKDYFPEPVTVSWNSGALTSGVHTFPAVLQSSGLYSLSSVVTVPSSSLGTQTYICNVNHKPSNTKVDKKVEPKSCDKTHTCPPCPAPPAAGPSVFLFPPKPKDTLMISRTPEVTCVVVDVSHEDPEVKFNWYVDGVEVHNAKTKPREEQYNSTYRVVSVLTVLHQDWLNGKEYKCKVSNKALAAPIEKTISKAKGQPREPQVYTLPPSREEMTKNQVSLTCLVKGFYPSDIAVEWESNGQPENNYKTTPPVLDSDGSFFLYSKLTVDKSRWQQGNVFSCSVMHEALHNHYTQKSLSLSPGKGGGGSEVQLLESGGGLVQPGGSLRLSCAASGFTVSAEDVGWVRQAPGKGLEWVSAILDFGGSTYYAESVKGRFTISRDNAKNTLYLQMSSLRAEDTAVYYCARVVYHAGGGVTFDTRGQGTQVTVSS light: DIQMTQSPSSLSASVGDRVTITCRASENQYGYLAWYQQKPGKVPKLLIYNYKNLVEGVPSRFSGSGSGTDFTLTISSLQPEDVATYYCQHHLGTPYTFGQGTKVEIKRTVAAPSVFIFPPSDEQLKSGTASVVCLLNNFYPREAKVQWKVDNALQSGNSQESVTEQDSKDSTYSLSSTLTLSKADYEKHKVYACEVTHQGLSSPVTKSFNRGEC |
| 189 nM | Format A - BGA-8425 (bispecific antibody, human IgG1, kappa, Light chain by the description of Format A) heavy: QVQLVQSGAEVKKPGASVKVSCKASGYIFTSYYLHWVRQAPGQGLEWIGYINPQTGKTSYAQKFQGRVTMTRDTSTSTVYMELSSLRSEDTAVYYCAREYGNYNYPLDYWGQGTLVTVSSASTKGPSVFPLAPSSKSTSGGTAALGCLVKDYFPEPVTVSWNSGALTSGVHTFPAVLQSSGLYSLSSVVTVPSSSLGTQTYICNVNHKPSNTKVDKKVEPKSCDKTHTCPPCPAPPAAGPSVFLFPPKPKDTLMISRTPEVTCVVVDVSHEDPEVKFNWYVDGVEVHNAKTKPREEQYNSTYRVVSVLTVLHQDWLNGKEYKCKVSNKALAAPIEKTISKAKGQPREPQVYTLPPSREEMTKNQVSLTCLVKGFYPSDIAVEWESNGQPENNYKTTPPVLDSDGSFFLYSKLTVDKSRWQQGNVFSCSVMHEALHNHYTQKSLSLSPGKGGGGSEVQLLESGGGLVQPGGSLRLSCAASGFTLSAEDVGWVRQAPGKGLEWVSAILDSGGSTYYAESVKGRFTISRDNAKNTLYLQMSSLRAEDTAVYYCARVVYHAGGGVTYDYRGQGTQVTVSS light: DIQMTQSPSSLSASVGDRVTITCRASENQYGYLAWYQQKPGKVPKLLIYNYKNLVEGVPSRFSGSGSGTDFTLTISSLQPEDVATYYCQHHLGTPYTFGQGTKVEIKRTVAAPSVFIFPPSDEQLKSGTASVVCLLNNFYPREAKVQWKVDNALQSGNSQESVTEQDSKDSTYSLSSTLTLSKADYEKHKVYACEVTHQGLSSPVTKSFNRGEC |
| 873 nM | Format A - BGA-9468 (bispecific antibody, human IgG1, kappa, Light chain by the description of Format A) heavy: QVQLVQSGAEVKKPGASVKVSCKASGYIFTSYYLHWVRQAPGQGLEWIGYINPQTGKTSYAQKFQGRVTMTRDTSTSTVYMELSSLRSEDTAVYYCAREYGNYNYPLDYWGQGTLVTVSSASTKGPSVFPLAPSSKSTSGGTAALGCLVKDYFPEPVTVSWNSGALTSGVHTFPAVLQSSGLYSLSSVVTVPSSSLGTQTYICNVNHKPSNTKVDKKVEPKSCDKTHTCPPCPAPPAAGPSVFLFPPKPKDTLMISRTPEVTCVVVDVSHEDPEVKFNWYVDGVEVHNAKTKPREEQYNSTYRVVSVLTVLHQDWLNGKEYKCKVSNKALAAPIEKTISKAKGQPREPQVYTLPPSREEMTKNQVSLTCLVKGFYPSDIAVEWESNGQPENNYKTTPPVLDSDGSFFLYSKLTVDKSRWQQGNVFSCSVMHEALHNHYTQKSLSLSPGKGGGGSEVQLLESGGGLVQPGGSLRLSCAASGFTVSAEDVGWVRQAPGKGLEWVSAILDSGGSTYYAESVKGRFTISRDNAKNTLYLQMSSLRAEDTAVYYCARVVYHSGGGVTFDLRGQGTQVTVSS light: DIQMTQSPSSLSASVGDRVTITCRASENQYGYLAWYQQKPGKVPKLLIYNYKNLVEGVPSRFSGSGSGTDFTLTISSLQPEDVATYYCQHHLGTPYTFGQGTKVEIKRTVAAPSVFIFPPSDEQLKSGTASVVCLLNNFYPREAKVQWKVDNALQSGNSQESVTEQDSKDSTYSLSSTLTLSKADYEKHKVYACEVTHQGLSSPVTKSFNRGEC |
| 154 nM | Format A - BGA-5385 (bispecific antibody, human IgG1, kappa, Light chain by the description of Format A) heavy: QVQLVQSGAEVKKPGASVKVSCKASGYIFTSYYLHWVRQAPGQGLEWIGYINPQTGKTSYAQKFQGRVTMTRDTSTSTVYMELSSLRSEDTAVYYCAREYGNYNYPLDYWGQGTLVTVSSASTKGPSVFPLAPSSKSTSGGTAALGCLVKDYFPEPVTVSWNSGALTSGVHTFPAVLQSSGLYSLSSVVTVPSSSLGTQTYICNVNHKPSNTKVDKKVEPKSCDKTHTCPPCPAPPAAGPSVFLFPPKPKDTLMISRTPEVTCVVVDVSHEDPEVKFNWYVDGVEVHNAKTKPREEQYNSTYRVVSVLTVLHQDWLNGKEYKCKVSNKALAAPIEKTISKAKGQPREPQVYTLPPSREEMTKNQVSLTCLVKGFYPSDIAVEWESNGQPENNYKTTPPVLDSDGSFFLYSKLTVDKSRWQQGNVFSCSVMHEALHNHYTQKSLSLSPGKGGGGSEVQLLESGGGLVQPGGSLRLSCAASGFTLSAEDVGWVRQAPGKGLEWVSAILDHGGSTYYAESVKGRFTISRDNAKNTLYLQMSSLRAEDTAVYYCARVIYHAGGGVTFDTRGQGTQVTVSS light: DIQMTQSPSSLSASVGDRVTITCRASENQYGYLAWYQQKPGKVPKLLIYNYKNLVEGVPSRFSGSGSGTDFTLTISSLQPEDVATYYCQHHLGTPYTFGQGTKVEIKRTVAAPSVFIFPPSDEQLKSGTASVVCLLNNFYPREAKVQWKVDNALQSGNSQESVTEQDSKDSTYSLSSTLTLSKADYEKHKVYACEVTHQGLSSPVTKSFNRGEC |

What follows are binders tested against full-length human CD137 (huCD137) (human, UniProt Q07011 24-255) (assay: cell-based or functional assay).
full-length human CD137 (huCD137), sequence (Q07011 24-255 limits assumed): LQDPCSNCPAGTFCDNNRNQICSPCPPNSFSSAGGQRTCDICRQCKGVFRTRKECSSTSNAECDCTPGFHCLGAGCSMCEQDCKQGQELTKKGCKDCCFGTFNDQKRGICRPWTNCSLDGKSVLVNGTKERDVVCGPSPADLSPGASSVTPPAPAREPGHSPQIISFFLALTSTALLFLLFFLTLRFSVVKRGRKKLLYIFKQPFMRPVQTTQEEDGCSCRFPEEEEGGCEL

| Functional assay EC50 (ug/ml), in vitro CD137 activation (PBMC cytokine release) | Binder |
| --- | --- |
| 0.01 µg/mL | BE-718 (A-BGA-5623-BGA-5623) (bispecific antibody, human IgG1, kappa) heavy: QVQLVQSGAEVKKPGASVKVSCKASGYIFTSYYLHWVRQAPGQGLEWIGYINPQTGKTSYAQKFQGRVTMTRDTSTSTVYMELSSLRSEDTAVYYCAREYGNYNYPLDYWGQGTLVTVSSASTKGPSVFPLAPSSKSTSGGTAALGCLVKDYFPEPVTVSWNSGALTSGVHTFPAVLQSSGLYSLSSVVTVPSSSLGTQTYICNVNHKPSNTKVDKKVEPKSCDKTHTCPPCPAPPAAGPSVFLFPPKPKDTLMISRTPEVTCVVVDVSHEDPEVKFNWYVDGVEVHNAKTKPREEQYNSTYRVVSVLTVLHQDWLNGKEYKCKVSNKALAAPIEKTISKAKGQPREPQVYTLPPSREEMTKNQVSLTCLVKGFYPSDIAVEWESNGQPENNYKTTPPVLDSDGSFFLYSKLTVDKSRWQQGNVFSCSVMHEALHNHYTQKSLSLSPGKGGGGSEVQLLESGGGLVQPGGSLRLSCAASGFTVSAEDVGWVRQAPGKGLEWVSAILDKGGSTYYAESVKGRFTISRDNAKNTLYLQMSSLRAEDTAVYYCARIVYHAGGGVTFDTRGQGTQVTVSSGGGGSEVQLLESGGGLVQPGGSLRLSCAASGFTVSAEDVGWVRQAPGKGLEWVSAILDKGGSTYYAESVKGRFTISRDNAKNTLYLQMSSLRAEDTAVYYCARIVYHAGGGVTFDTRGQGTQVTVSS light: DIQMTQSPSSLSASVGDRVTITCRASENQYGYLAWYQQKPGKVPKLLIYNYKNLVEGVPSRFSGSGSGTDFTLTISSLQPEDVATYYCQHHLGTPYTFGQGTKVEIKRTVAAPSVFIFPPSDEQLKSGTASVVCLLNNFYPREAKVQWKVDNALQSGNSQESVTEQDSKDSTYSLSSTLTLSKADYEKHKVYACEVTHQGLSSPVTKSFNRGEC |
| 0.17 µg/mL | BE-740 (A-IgG1-BGA-5623) (bispecific antibody) heavy: not shown light: DIQMTQSPSSLSASVGDRVTITCRASENQYGYLAWYQQKPGKVPKLLIYNYKNLVEGVPSRFSGSGSGTDFTLTISSLQPEDVATYYCQHHLGTPYTFGQGTKVEIKRTVAAPSVFIFPPSDEQLKSGTASVVCLLNNFYPREAKVQWKVDNALQSGNSQESVTEQDSKDSTYSLSSTLTLSKADYEKHKVYACEVTHQGLSSPVTKSFNRGEC |
